# Test results taken from patent US20260209359A1 (NEXTERA, published 2026).
# B1: AM2 scFv displayed on phage (scFv)
# scFv: QVQLVQSGAEVKKPGASVKVSCKVSGYTLTELSMHWVRQAPGKGLEWMGGFDPEDGETIYAQKFQGRVTMTEDTSTDTAYMELSSLRSEDTAVYYCATDQGSSWGFYWGQGTLVTVSSKLSGSASAPKLEEGEFSEARVDIRVTQSPSSLSASVGDRVTITCRASQNIMWYLNWYQQKPGKAPKLLIYAASSLQSGVPSRFSGSGSGTDFTLTISSLQPEDFATYYCQQSYSTPYTFGQGTKLEIK
# notes: scFv on the surface of phage particles; also called AM2 phages
# How the values were obtained:
# [1] = biological target: T1, HLA-A*02:01 loaded with MAGE-A8 homologue peptide, soluble biotinylated (human, UniProt P04439 25-299 at identity 0.94); P61769 21-119, biotinylated); assay: pHLA phage capture ELISA
# T1 construct: HLA monomer as for m1
# [2] = biological target: T2, HLA-A*02:01 loaded with MAGE-A9 homologue peptide, soluble biotinylated (human, UniProt P04439 25-299 at identity 0.94); P61769 21-119, biotinylated); assay: pHLA capture ELISA: biotinylated pHLA on neutravidin, scFv-phage, anti-M13 antibody detection [cont.) C]
# T2 construct: HLA monomer as for m1
# [3] = biological target: T3, HLA-A*02:01 loaded with MAGE-A11 homologue peptide, soluble biotinylated (human, UniProt P04439 25-299 at identity 0.94); P61769 21-119, biotinylated); assay: as above
# T3 construct: HLA monomer as for m1
# [4] = biological target: T4, HLA-A*02:01 loaded with MAGE-B4 homologue peptide, soluble biotinylated (human, UniProt P04439 25-299 at identity 0.94); P61769 21-119, biotinylated); assay: as above
# T4 construct: HLA monomer as for m1
# [5] = biological target: T5, HLA-A*02:01 loaded with MAGE-B10 homologue peptide, soluble biotinylated (human, UniProt P04439 25-299 at identity 0.94); P61769 21-119, biotinylated); assay: as above
# T5 construct: HLA monomer as for m1
# [6] = biological target: T6, HLA-A*02:01 loaded with MAGE-B2 homologue peptide, soluble biotinylated (human, UniProt P04439 25-299 at identity 0.94); P61769 21-119, biotinylated); assay: as above
# T6 construct: HLA monomer as for m1
# [7] = biological target: T7, HLA-A*02:01 loaded with MAGE-A2 homologue peptide, soluble biotinylated (human, UniProt P04439 25-299 at identity 0.94); P61769 21-119, biotinylated); assay: as above
# T7 construct: HLA monomer as for m1
# [8] = biological target: T8, HLA-A*02:01 loaded with MAGE-A1 homologue peptide, soluble biotinylated (human, UniProt P04439 25-299 at identity 0.94); P61769 21-119, biotinylated); assay: as above
# T8 construct: HLA monomer as for m1
# [9] = biological target: T9, HLA-A*02:01 loaded with MAGE-C2 homologue peptide, soluble biotinylated (human, UniProt P04439 25-299 at identity 0.94); P61769 21-119, biotinylated); assay: as above
# T9 construct: HLA monomer as for m1
# [10] = biological target: T10, HLA-A*02:01 loaded with MAGE-A10 homologue peptide, soluble biotinylated (human, UniProt P04439 25-299 at identity 0.94); P61769 21-119, biotinylated); assay: as above
# T10 construct: HLA monomer as for m1
# [11] = biological target: T11, HLA-A*02:01 loaded with MAGE-B6 homologue peptide, soluble biotinylated (human, UniProt P04439 25-299 at identity 0.94); P61769 21-119, biotinylated); assay: as above
# T11 construct: HLA monomer as for m1
# [12] = biological target: T12, HLA-A*02:01 loaded with MAGE-A3 homologue peptide, soluble biotinylated (human, UniProt P04439 25-299 at identity 0.94); P61769 21-119, biotinylated); assay: as above
# T12 construct: HLA monomer as for m1
# [13] = biological target: T13, HLA-A*02:01 loaded with MAGE-A12 homologue peptide, soluble biotinylated (human, UniProt P04439 25-299 at identity 0.94); P61769 21-119, biotinylated); assay: as above
# T13 construct: HLA monomer as for m1
binder,measurement,setting,value
B1,fold reduction of binding as compared to binding to HLA-A*02:01/MAGE-A4^230-239,[1],≥ 2 fold
same,binding result,[2],no binding (tested: 10^9 phages/well)
same,binding result,[3],no binding (tested: 10^9 phages/well)
same,binding result,[4],no binding (tested: 10^9 phages/well)
same,binding result,[5],no binding (tested: 10^9 phages/well)
same,binding result,[6],no binding (tested: 10^9 phages/well)
same,binding result,[7],no binding (tested: 10^9 phages/well)
same,binding result,[8],no binding (tested: 10^9 phages/well)
same,binding result,[9],no binding (tested: 10^9 phages/well)
same,binding result,[10],no binding (tested: 10^9 phages/well)
same,binding result,[11],no binding (tested: 10^9 phages/well)
same,binding result,[12],no binding (tested: 10^9 phages/well)
same,binding result,[13],no binding (tested: 10^9 phages/well)
